Source: patent US20100028924A1 (RAPPAPORT FAMILY INSTITUTE RESEARCH IN THE MEDICAL SCIENCES, published 2010)
Changes are numbered by the printed parent chain.

Target: rHDL-apoA-I (reconstituted discoidal HDL particles carrying apolipoprotein A-I)
Assay: cell-based or functional assay

B1: wt rePON1-192K (enzyme)
chain: MAKLTALTLLGLGLALFDGQKSSFQTRFNVHREVTPVELPNCNLVKGVDNGSEDLEILPNGLAFISSGLKYPGIMSFDPDKSGKILLMDLNEEDPVVLELGITGNTLDISSFNPHGISTFTDEDNTVYLLVVNHPDSSSTVEVFKFQEEEKSLLHLKTIRHKLLPSVNDIVAVGPEHFYATNDHYFADPYLKSWEMHLGLAWSFVTYYSPNDVRVVAEGFDFANGINISPDGKYVYIAELLAHKIHVYEKHANWTLTPLKSLDFDTLVDNISVDPVTGDLWVGCHPNGMRIFYYDPKNPPGSEVLRIQDILSEEPKVTVVYAENGTVLQGSTVAAVYKGKLLIGTVFHKALYCEL
- increase of cholesterol efflux from macrophages relative to rHDL-apoA-I alone: 93%

B2: rePON1-192Q (enzyme)
chain: B1 chain with K192Q
- increase of cholesterol efflux from macrophages relative to rHDL-apoA-I alone: 30%

B3: rePON1-192R (enzyme)
chain: B1 chain with K192R
- increase of cholesterol efflux from macrophages relative to rHDL-apoA-I alone: 67%
